Source: patent US9193963B2, “Mutant endoglucanase” (Toray Industries, Inc., priority 2011, dated 2015)

B1: EGSh Wild-type: Staphylothermus hellenicus-derived endoglucanase, SEQ ID NO: 19, parent endoglucanase (protein)
chain: MPARTRIACAVILLLVFLALYIAWPVEGSFLKQQPYNELRGRVLGSNIQIPKDHIPYYHIVNGTIYMDDKLIHLFGVSWFGFELPDHIVYGLWARNWKDILKDIKEMGFNAIRLPFCHESITPGTKPVPGRISYSLNPDLRNLTSLEIMEKIISYANELNIFVLLDYHRIGCRYIEPLWYTDNFSEEQYIKDWVFLAQKFGKYPNVIGADIKNEPHDSASWGTGDNKTDFRLFAERVGQAILQVAPHWLIFIEGVQYTHVPEIDGRNPYSCFWGENLMGVKDYPVRLPKDKIVYSPHVYGPSVYNMPYFNDPEFPRNLPKIWELHFGYLKELGYAIVIGEWGGRYVGKDKVWQDAFADWLIQKGIYDFFYWCLNPESGDTGGIFKSDWRTVNQDKLNLIHRIINAASQAQASTISGKHDWKTYLVLIAPTLLPVLILVILVLLIIKRRYTKKQ
modifications: Staphylothermus hellenicus EGSh
B2: EGSh Mutant: mutant EGSh, SEQ ID NO: 20; residue corresponding to 273rd tryptophan substituted with alanine (protein)
chain: MPARTRIACAVILLLVFLALYIAWPVEGSFLKQQPYNELRGRVLGSNIQIPKDHIPYYHIVNGTIYMDDKLIHLFGVSWFGFELPDHIVYGLWARNWKDILKDIKEMGFNAIRLPFCHESITPGTKPVPGRISYSLNPDLRNLTSLEIMEKIISYANELNIFVLLDYHRIGCRYIEPLWYTDNFSEEQYIKDWVFLAQKFGKYPNVIGADIKNEPHDSASWGTGDNKTDFRLFAERVGQAILQVAPHWLIFIEGVQYTHVPEIDGRNPYSCFAGENLMGVKDYPVRLPKDKIVYSPHVYGPSVYNMPYFNDPEFPRNLPKIWELHFGYLKELGYAIVIGEWGGRYVGKDKVWQDAFADWLIQKGIYDFFYWCLNPESGDTGGIFKSDWRTVNQDKLNLIHRIINAASQAQASTISGKHDWKTYLVLIAPTLLPVLILVILVLLIIKRRYTKKQ
modifications: Staphylothermus hellenicus EGSh W273A
notes: residue corresponding to 273rd tryptophan substituted with alanine
B3: EGPh(W273Y): comparative mutant of EGPh, the 273rd tryptophan substituted with tyrosine, SEQ ID NO: 49 (protein)
chain: MEGNTILKIVLICTILAGLFGQVVPVYAENTTYQTPTGIYYEVRGDTIYMINVTSGEETPIHLFGVNWFGFETPNHVVHGLWKRNWEDMLLQIKSLGFNAIRLPFCTESVKPGTQPIGIDYSKNPDLRGLDSLQIMEKIIKKAGDLGIFVLLDYHRIGCTHIEPLWYTEDFSEEDFINTWIEVAKRFGKYWNVIGADLKNEPHSVTSPPAAYTDGTGATWGMGNPATDWNLAAERIGKAILKVAPHWLIFVEGTQFTNPKTDSSYKWGYNAWYGGNLMAVKDYPVNLPRNKLVYSPHVYGPDVYNQPYFGPAKGFPDNLPDIWYHHFGYVKLELGYSVVIGEFGGKYGHGGDPRDVIWQNKLVDWMIENKFCDFFYWSWNPDSGDTGGILQDDWTTIWEDKYNNLKRLMDSCSKSSSSTQSVIRSTTPTKSNTSKKICGPAILIILAVFSLLLRRAPR
modifications: Pyrococcus horikoshii EGPh W273Y
B4: EGPh(W273F): comparative mutant of EGPh, tryptophan substituted with phenyl alanine, SEQ ID NO: 50 (protein)
chain: MEGNTILKIVLICTILAGLFGQVVPVYAENTTYQTPTGIYYEVRGDTIYMINVTSGEETPIHLFGVNWFGFETPNHVVHGLWKRNWEDMLLQIKSLGFNAIRLPFCTESVKPGTQPIGIDYSKNPDLRGLDSLQIMEKIIKKAGDLGIFVLLDYHRIGCTHIEPLWYTEDFSEEDFINTWIEVAKRFGKYWNVIGADLKNEPHSVTSPPAAYTDGTGATWGMGNPATDWNLAAERIGKAILKVAPHWLIFVEGTQFTNPKTDSSYKWGYNAWFGGNLMAVKDYPVNLPRNKLVYSPHVYGPDVYNQPYFGPAKGFPDNLPDIWYHHFGYVKLELGYSVVIGEFGGKYGHGGDPRDVIWQNKLVDWMIENKFCDFFYWSWNPDSGDTGGILQDDWTTIWEDKYNNLKRLMDSCSKSSSSTQSVIRSTTPTKSNTSKKICGPAILIILAVFSLLLRRAPR
modifications: Pyrococcus horikoshii EGPh W273F

Tests used:
[1] = Saccharification of lignocellulose 3 with Trichoderma reesei culture solution and endoglucanase; type: biochemical, Rice straw; details: Lignocellulose 3, 24 hours; cellulase 1.0 mg/mL + endoglucanase 0.1 mg/mL + β-glucosidase (Novozyme 188) 0.01 mg/mL
Description: (§1) Rice straw was used as cellulose. The cellulose was immersed in water, and then autoclaved with agitation at 180° C. for 20 minutes (Nitto Koatsu Co. Ltd.). Pressure at this time was 10 MPa. After treatment, a solution component (hereinafter, referred to as “hydrothermally treated solution”) and the treated biomass component were subjected to solid-liquid separation by centrifugation (3000 G). The thus treated biomass component was used as lignocellulose 3 for the following examples.
(§2) The changes in the amount of glucose generated when the enzyme composition had been caused to act on lignocellulose substrates were compared. The substrates were prepared by suspending 5 wt % lignocelluloses (1 to 3) (prepared in Reference Example 3) in 50 mM acetate buffer (pH5.2). Reactions were performed at 50° C. for 24 hours. The concentrations of the generated glucose were measured after adequate sampling. As a filamentous bacterium-derived cellulase mixture, commercially available Trichoderma reesei-derived cellulase (Celluclast, Sigma) was used. As endoglucanases, the mutant endoglucanases prepared in Example 2 and the wild-type endoglucanases prepared in Reference Example 1 were separately used. The following quantities of enzymes were added: 1.0 mg/mL cellulase, and 0.1 mg/mL endoglucanase (in an amount one tenth that of the cellulase).
(§3) Lignocelluloses (1-3) prepared in Reference Example 3 were used as substrates. The Trichoderma reesei culture solution prepared in Reference Example 4 was used as a filamentous bacterium-derived cellulase mixture. Lignocelluloses (1-3) were hydrolyzed in a manner similar to that in Example 7, except for the quantities of the enzymes added: cellulase (1.0 mg/mL); endoglucanase (0.1 mg/mL (in an amount one tenth that of the cellulase); and β-glucosidase (Novozyme 188) (0.01 mg/mL (in an amount one hundredth that of the cellulase).

[2] = Saccharification of lignocellulose 2 with Celluclast and endoglucanase; type: biochemical, Rice straw; details: 5 wt % Lignocellulose 2, pH 5.2, 50° C., 24 hours; 1.0 mg/mL cellulase + 0.1 mg/mL endoglucanase
Description: (§4) Rice straw was used as cellulose. Cellulose was immersed in a 1% aqueous sulfuric acid solution, and then autoclaved for 30 minutes at 150° C. (Nitto Koatsu Co. Ltd.). After treatment, the resultant was subjected to solid-liquid separation into an aqueous sulfuric acid solution (hereinafter, referred to as “dilute-sulfuric-acid-treated solution”) and cellulose treated with sulfuric acid. Next, the cellulose treated with sulfuric acid was mixed and agitated with the dilute-sulfuric-acid-treated solution so that the solid content concentration was 10 wt %. Then the mixture was adjusted to around pH 5 using sodium hydroxide. The resultant was used as lignocellulose 2 for the following examples.
as §2

[3] = Activity to degrade phosphoric acid swollen cellulose; type: biochemical
Description: The term “identity” refers to the percentage of amino acid residues identical to and amino acid residues analogous to the other amino acid residues in all the amino acid residues overlapped when an optimum alignment is performed by introducing gaps or no gaps into two amino acid sequences and then aligning the two amino acid sequences. Such an identity can be found using a method known by persons skilled in the art, sequence analysis software, and the like (a known algorithm such as BLAST or FASTA). The term “endoglucanase activity” is as defined above and can be determined by adding an enzyme solution to a substrate solution of phosphoric acid swollen cellulose that has been dissolved in 50 mM acetic acid-sodium acetate buffer (pH 5.2) or the like, performing 1 hour of reaction at 30° C. to 85° C., stopping the reaction by changing the pH if necessary, and then determining the concentration of glucose in the reaction solution using a glucose determination kit, for example.
The mutants obtained in Comparative Example 1 were compared in terms of activity by a technique similar to that in Example 3. The concentration (g/L) of glucose generated by each parent endoglucanase under the above reaction conditions was determined to be 100%.

[4] = Inhibition experiment with ferulic acid: degradation of phosphoric acid swollen cellulose; type: biochemical; details: enzyme 0.5 μM, 1 hour, 50° C., parent at 0 mM = 100%
[5] = Inhibition experiment with vanillin: degradation of phosphoric acid swollen cellulose; type: biochemical; details: enzyme 0.5 μM, 1 hour, 50° C., parent at 0 mM = 100%
Description: This substance was diluted using buffer and water to obtain a 2 wt % mixture so that the final concentration of sodium acetate was 50 mM (pH 5.2). This was designated as phosphoric acid swollen cellulose and used for the following examples.
The activity of the wild-type and the mutant endoglucanases to degrade phosphoric acid swollen cellulose in the presence of vanillin was measured. 1% phosphoric acid swollen cellulose/50 mM acetate buffer (pH 5.2) was used as a substrate. Vanillin (Sigma Aldrich) was added at final concentrations of 0, 5, 10, and 15 mM. The enzymes prepared in Reference Example 1 and Example 2 were added at a final concentration of 0.5 μM, followed by 1 hour of enzymatic reaction at 50° C.

[6] = Saccharification of lignocellulose 2 with Trichoderma reesei culture solution and endoglucanase; type: biochemical, Rice straw; details: Lignocellulose 2, 24 hours; cellulase 1.0 mg/mL + endoglucanase 0.1 mg/mL + β-glucosidase (Novozyme 188) 0.01 mg/mL
Description: as §4, §2, §3

[7] = Saccharification of lignocellulose 1 with Trichoderma reesei culture solution and endoglucanase; type: biochemical, Rice straw; details: Lignocellulose 1, 24 hours; cellulase 1.0 mg/mL + endoglucanase 0.1 mg/mL + β-glucosidase (Novozyme 188) 0.01 mg/mL
Description: (§5) Rice straw was used as cellulose. The cellulose was added to a small reactor (Taiatsu Techno Corporation, TVS-N2 (30 ml)), and then cooled with liquid nitrogen. An ammonia gas was fed to the reactor, thereby completely immersing the sample in the liquid ammonia. The reactor was closed using its lid, and then left to stand at room temperature for 15 minutes. Subsequently, treatment was performed for 1 hour in an oil bath at 150° C. After treatment, the reactor was removed from the oil bath, an ammonia gas leak was immediately performed within a draft chamber. The reactor was vacuumed using a vacuum pump to 10 Pa for drying. The resultant was used as lignocellulose 1 in the following examples.
as §2, §3

[8] = Saccharification of lignocellulose 1 with Celluclast and endoglucanase; type: biochemical, Rice straw; details: 5 wt % Lignocellulose 1, pH 5.2, 50° C., 24 hours; 1.0 mg/mL cellulase + 0.1 mg/mL endoglucanase
Description: as §5, §2

[9] = Saccharification of lignocellulose 3 with Celluclast and endoglucanase; type: biochemical, Rice straw; details: 5 wt % Lignocellulose 3, pH 5.2, 50° C., 24 hours; 1.0 mg/mL cellulase + 0.1 mg/mL endoglucanase
Description: as §1, §2

[10] = 1% phosphoric acid swollen cellulose, pH 5.2, enzyme 0.5 μM, 1 hour, 50° C., glucose generated by each parent endoglucanase = 100%
[11] = Comparative Example 2, technique similar to Example 3, parent endoglucanase = 100%

| Molecule | Relative activity [3, 10] [%] | Relative activity to degrade phosphoric acid swollen cellulose ([4]; ferulic acid 0 mM) [%] | Relative activity to degrade phosphoric acid swollen cellulose ([4]; ferulic acid 5 mM) [%] | Relative activity to degrade phosphoric acid swollen cellulose ([4]; ferulic acid 10 mM) [%] | Relative activity to degrade phosphoric acid swollen cellulose ([4]; ferulic acid 15 mM) [%] | Relative activity to degrade phosphoric acid swollen cellulose ([5]; vanillin 0 mM) [%] | Relative activity to degrade phosphoric acid swollen cellulose ([5]; vanillin 5 mM) [%] | Relative activity to degrade phosphoric acid swollen cellulose ([5]; vanillin 10 mM) [%] | Relative activity to degrade phosphoric acid swollen cellulose ([5]; vanillin 15 mM) [%] | Relative activity [3, 11] [%] | also measured |
| --- | --- | --- | --- | --- | --- | --- | --- | --- | --- | --- | --- |
| B1 | 100 | 100 | 65 | 55 | 50 | 100 | 40 | 35 | 30 |  | Concentration of glucose generated, Culture solution + Wild-type [1]: 9 g/L; Concentration of glucose generated, Celluclast + Wild-type [2]: 11 g/L; Concentration of glucose generated, Culture solution + Wild-type [6]: 8 g/L; Concentration of glucose generated, Culture solution + Wild-type [7]: 9 g/L; Concentration of glucose generated, Celluclast + Wild-type [8]: 12 g/L; Concentration of glucose generated, Celluclast + Wild-type [9]: 12 g/L |
| B2 | 100 | 100 | 95 | 85 | 80 | 100 | 90 | 85 | 80 |  | Concentration of glucose generated, Culture solution + Mutant [1]: 12 g/L; Concentration of glucose generated, Celluclast + Mutant [2]: 15 g/L; Concentration of glucose generated, Culture solution + Mutant [6]: 12 g/L; Concentration of glucose generated, Culture solution + Mutant [7]: 11 g/L; Concentration of glucose generated, Celluclast + Mutant [8]: 14 g/L; Concentration of glucose generated, Celluclast + Mutant [9]: 15 g/L |
| B3 |  |  |  |  |  |  |  |  |  | 100 |  |
| B4 |  |  |  |  |  |  |  |  |  | 100 |  |
